B1: AR805 peptide (peptide)
peptide: FLCMKALLL
notes: Synthetic 9-mer
B2: AR862 peptide (peptide)
peptide: KLLDSVQPI
notes: Synthetic 9-mer derived from the AR LBD
B3: AR814 peptide (peptide)
peptide: FSIIPVDGL
notes: as for B2
B4: AR811 peptide (peptide)
peptide: LLLFSIIPV
notes: Synthetic 9-mer
B5: AR742 peptide (peptide)
peptide: WMGLMVFAM
notes: as for B2
B6: AR708 peptide (peptide)
peptide: LGERQLVHVV
notes: Synthetic 10-mer derived from the AR LBD
B7: AR859 peptide (peptide)
peptide: QLTKLLDSV
notes: Synthetic 9-mer
B8: AR677 peptide (peptide)
peptide: VLEAIEPGV
notes: as for B2
B9: AR700 peptide (peptide)
peptide: ALLSSLNEL
notes: as for B2
B10: AR761 peptide (peptide)
peptide: RMLYFAPDLV
notes: Synthetic 10-mer

Target: T1, HLA-A2 on T2 cells (human)
T1 construct: whole, on cells; MHC class I molecule on T2 cells
Assay: T2 binding assay: T2 cells pulsed with 50 ug/mL peptide overnight, surface HLA-A2 by flow cytometry (BB7.2)
Protocol: T2 Binding Assay: After passing T2 cells into fresh media the day before the assay, these cells were pulsed with 50 μg/mL peptide overnight at 37° C./5% CO₂.

In order of falling “In Vitro HLA-A2 Expression (Relative Mean Flourescent Intensity)” value:
1. B9  2.66 ratio to unloaded T2 cells
2. B4  2.54 ratio to unloaded T2 cells
3. B1  2.19 ratio to unloaded T2 cells
4. B10  2.15 ratio to unloaded T2 cells
5. B2  1.65 ratio to unloaded T2 cells
6. B8  1.37 ratio to unloaded T2 cells
7. B7  1.33 ratio to unloaded T2 cells
8. B5  1.32 ratio to unloaded T2 cells
9. B6  1.16 ratio to unloaded T2 cells
10. B3  1.01 ratio to unloaded T2 cells

From patent US20120020912A1 (WISCONSIN ALUMNI RESEARCH FOUNDATION, published 2012)
